The target in test [1] is T1, recombinant human CD3 delta/epsilon complex (hu.CD3 d/e-Fc) (human, UniProt P04234 22-105; P07766 23-126).
T1 construct: not shown: Fc portion
As to the kind of experiment: Octet (BLI), hu.CD3de-Fc captured on Fc sensor, conjugate as analyte; unit inferred, M implied. How it is done: (§1) Analytes were serially diluted 1.2× from 6 μg/mL to 1 μg/mL in the 1×PBS. 100 mM glycine (pH 2.87) regeneration solution, and 1×PBS for baseline stabilization was also prepared. Biosensor, ligand and analytes pair is following: (1) CH-1-antibodies-recombinant human or cynomolgus monkey CD3 delta/epsilon complex, (2) Fc-recombinant human or cynomolgus monkey CD3 delta/epsilon complex-antibodies (3) CH-1-antibodies-recombinant human or cynomolgus monkey PSMA; and (4) Ni-NTA-recombinant human or cynomolgus monkey PSMA-antibodies. Prior to the binding measurements, the sensor tips were pre-hydrated in 1×PBS for 30 min, followed by 1 cycles of pre-conditioning with 60-sec dips in glycine (pH 2.87). The sensor tips were then transferred to the ligand-containing wells for a 180-sec loading step. After a 120-sec baseline dip in 1×PBS, the binding kinetics were measured by dipping the ligand-coated sensors into the wells containing corresponding analyte at varying concentrations. The binding interactions were monitored over a 180-sec association period and followed by a 7.5 to 15-min dissociation period in new wells containing fresh 1×PBS.

For test [2], the target named is T1, recombinant human CD3 delta/epsilon …. The test can be described thus: Octet (BLI), conjugate captured on CH1 sensor, hu.CD3 d/e-Fc as analyte; unit inferred, M implied. How it is done: as §1
The target of test [3] is T2, recombinant cynomolgus monkey CD3 delta/epsilon complex (cy.CD3 d/e-Fc) (cynomolgus monkey, UniProt Q95LI8 22-105; Q95LI5 22-117).
T2 construct: also called cynoCD3; not shown: Fc portion
As to the kind of experiment: Octet (BLI), cy.CD3 d/e-Fc captured on Fc sensor, conjugate as analyte; unit inferred, M implied. How it is done:
as §1
For orientation: BLI is a label-free optical method that tracks binding on a fibre tip over time.

The target of test [4] is T2, recombinant cynomolgus monkey CD3 …. The test can be described thus: Octet (BLI), conjugate captured on CH1 sensor, cy.CD3 d/e-Fc as analyte; unit inferred, M implied. How it is done:
as §1

For test [5], the target named is T3, human CD3 on human T cells (Jurkat) (human, UniProt P07766 23-207; P04234 22-171; P09693 23-182).
T3 construct: whole, on cells; also called huCD3+; cell surface CD3 on human (Jurkat) T cells
As to the kind of experiment: flow cytometry on Jurkat (huCD3+) cells, detected with PE-conjugated anti-human kappa secondary antibody; control is the secondary antibody alone. The source says:
(§2) Flow cytometry was used to test binding of conjugates to cell surface CD3 on human (Jurkat) and cynomolgus (HSC-F) T cells or PSMA on C4-2 cells.

Test [6] concerns the target T4, cynomolgus CD3 on cynomolgus T cells (HSC-F) (cynomolgus monkey, UniProt Q95LI5 22-198; Q95LI8 22-171; Q95LI7 23-181).
T4 construct: whole, on cells; also called cyCD3+; cell surface CD3 on cynomolgus (HSC-F) T cells
The test can be described thus: flow cytometry on HSC-F (cyCD3+) cells, detected with PE-conjugated anti-human kappa secondary antibody; control is the secondary antibody alone.
Text: as §2
On the technique in general: In flow cytometry, cells or beads pass a laser one at a time.

The values below come from patent publication US12252534 (Scripps Research, dated 2025).

T1 sequence (P04234 22-105, stated change not applied, chain 1 of 2): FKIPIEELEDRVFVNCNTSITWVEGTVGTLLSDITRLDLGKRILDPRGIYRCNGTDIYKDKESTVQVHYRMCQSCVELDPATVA
T1 sequence (P07766 23-126, stated change not applied, chain 2 of 2): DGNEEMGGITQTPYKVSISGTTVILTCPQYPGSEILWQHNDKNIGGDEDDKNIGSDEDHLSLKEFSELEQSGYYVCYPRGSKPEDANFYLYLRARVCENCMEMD
T2 sequence (Q95LI8 22-105, stated change not applied, chain 1 of 2): as the sequence (P04234 22-105, stated change not applied, chain 1 of 2) above, with I5V, N15K, I20V, S32T, D33N, I34N, T64A, S74N, V83L counted along it
T2 sequence (Q95LI5 22-117, stated change not applied, chain 2 of 2): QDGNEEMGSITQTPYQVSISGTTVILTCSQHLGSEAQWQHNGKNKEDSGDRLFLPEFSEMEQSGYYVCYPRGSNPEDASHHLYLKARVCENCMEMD
T3 sequence (P07766 23-207, chain 1 of 3): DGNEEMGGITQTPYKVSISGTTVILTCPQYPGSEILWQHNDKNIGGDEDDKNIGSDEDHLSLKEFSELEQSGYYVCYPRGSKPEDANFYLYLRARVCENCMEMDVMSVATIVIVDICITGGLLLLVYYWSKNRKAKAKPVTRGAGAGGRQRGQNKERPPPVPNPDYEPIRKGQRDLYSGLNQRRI
T3 sequence (P04234 22-171, chain 2 of 3): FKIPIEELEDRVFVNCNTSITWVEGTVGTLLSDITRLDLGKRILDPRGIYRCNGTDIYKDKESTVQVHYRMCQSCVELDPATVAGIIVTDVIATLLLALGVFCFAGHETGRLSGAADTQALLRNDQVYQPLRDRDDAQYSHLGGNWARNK
T3 sequence (P09693 23-182, chain 3 of 3): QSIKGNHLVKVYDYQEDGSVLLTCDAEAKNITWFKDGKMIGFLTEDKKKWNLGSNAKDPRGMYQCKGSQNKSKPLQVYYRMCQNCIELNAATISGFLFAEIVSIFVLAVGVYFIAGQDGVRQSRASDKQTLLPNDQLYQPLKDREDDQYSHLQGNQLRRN
T4 sequence (Q95LI5 22-198, chain 1 of 3): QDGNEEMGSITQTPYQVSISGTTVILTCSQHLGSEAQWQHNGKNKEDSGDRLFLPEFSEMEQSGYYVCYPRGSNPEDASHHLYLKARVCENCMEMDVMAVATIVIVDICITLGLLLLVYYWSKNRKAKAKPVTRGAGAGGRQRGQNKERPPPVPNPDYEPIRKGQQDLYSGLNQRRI
T4 sequence (Q95LI8 22-171, chain 2 of 3): as the sequence (P04234 22-171, chain 2 of 3) above, with I5V, N15K, I20V, S32T, D33N, I34N, T64A, S74N, V83L, H141R counted along it
T4 sequence (Q95LI7 23-181, chain 3 of 3): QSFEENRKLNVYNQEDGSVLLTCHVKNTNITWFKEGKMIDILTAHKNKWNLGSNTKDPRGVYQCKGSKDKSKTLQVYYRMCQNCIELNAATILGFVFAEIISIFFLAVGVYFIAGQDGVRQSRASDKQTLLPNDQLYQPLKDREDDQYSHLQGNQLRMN

B1: huL5H2_DI-1×DUPA (SEQ ID NOS: 39, 44) (Fab, V domains shown)
VH: EVQLVESGGGLVQPGGSLRLSCAASGFTFNTYAMNWVRQAPGKGLEWVARIRSKYNNYATYYADSVKDRFTISRDDSKNTLYLQMNSLRAEDTAVYYCVRHGNFGNSYVSWFAYWGQGTLVTVSS
VL: QAVVTQEPSLTVSPGGTVTLTCRSSTGAVTTSNYANWVQQKPDHLFRGLIGGTNKRAPGTPARFSGSLLGDKAALTISGAQPEDEAEYYCALWYSNLWVFGGGTKLTVLK
modifications: pAcF at position 141 conjugated by oxime to a DUPA-linker
notes: De-immunized Fab with a single DUPA on the heavy chain; also called L5H2-DI-1X-DUPA; L5H2_DI-1xDUPA
Regarding B1, the Kd – broadly, the constant that tells how readily two partners part at equilibrium – in test [1] was found to be 21.2 nM; in test [2], 4.83 nM; in test [3], 11.3 nM; in test [4], 3.29 nM.

B2: huL5H2_DI-2×DUPA (SEQ ID NOS: 40, 44) (Fab, V domains shown)
VH: B1 VH
VL: B1 VL
modifications: pAcF at position 205 conjugated by oxime to p-TriA (DUPA-linker); pAcF at position 141 conjugated by oxime to p-TriA (DUPA-linker)
notes: De-immunized Fab with one DUPA on the heavy chain and one on the light chain; also called L5H2-DI-2X-DUPA; L5H2_DI-2xDUPA
With B2, the values for the dissociation constant Kd in test [1] and in test [2] were 11 nM and 5.13 nM, respectively.

B3: UCHT-1 (SEQ ID NOS: 84, 85) anti-CD3 Fab (Fab, V domains shown)
VH: EVQLVESGGGLVQPGGSLRLSCAASGYSFTGYTMNWVRQAPGKGLEWVALINPYKGVSTYNQKFKDRFTISVDKSKNTAYLQMNSLRAEDTAVYYCARSGYYGDSDWYFDVWGQGTLVTVSS
VL: DIQMTQSPSSLSASVGDRVTITCRASQDIRNYLNWYQQKPGKAPKLLIYYTSRLESGVPSRFSGSGSGTDYTLTISSLQPEDFATYYCQQGNTLPWTFGQGTKVEIKR
notes: The unconjugated UCHT-1 that was tested may carry pAcF residues; also called clone UCHT-1
With B3, the binding result in test [5] is on record as “binds”; in test [6], “no binding”.
